{"source": "paper PMC10790359", "about": "“System for Self-excited Targeted Photodynamic Therapy Based on the Multimodal Protein DARP-NanoLuc-SOPP3” (Acta Naturae, 2023)", "biological_target": "T1, HER2 (human epidermal growth factor receptor type II) (human (endogenous in SKOV3.ip1), UniProt P04626 23-1255)", "T1 construct": "HER2, human epidermal growth factor receptor type II, on the surface of human ovarian adenocarcinoma SKOV3.ip1 / SKOV3.ip1-Kat cells; also called HER2 receptor; HER2 tumor marker; source: endogenous, on SKOV3.ip1 and SKOV3.ip1-Kat cells (HER2 overexpression)", "test": "flow cytometry on cells; cells incubated with 300 nM DARP-NanoLuc-SOPP3-AF488 conjugate in complete growth medium for 10 min at 37°C, washed thrice with phosphate-buffered saline; HER2-positive SKOV3.ip1-Kat cells; control: unlabelled cells", "settings": "one partner purified", "data": [{"binder": "DARP-NanoLuc-SOPP3 (designed binder, conjugated with N-hydroxysuccinimide esters of dyes (AF488 or Cy5.5) for flow cytometry and confocal microscopy; legends and results call the green conjugate FITC; labelled residues not stated, DARPin_9-29, HER2-specific targeting module; NanoLuc luciferase (engineered), amplified from plasmid pNL1.1.CMV (Promega); SOPP3 phototoxic flavoprotein (a miniSOG analogue, engineered), amplified from pET24-SOPP3; vector-derived residues between SOPP3 and the C-terminal HHHHHH of the printed chain; cytotoxicity assays used the protein without a dye; also called DARPin-NanoLuc-SOPP3; …) MDLGKKLLEAARAGQDDEVRILMANGADVNAHDFYGITPLHLAANFGHLEIVEVLLKHGADVNAFDYDNTPLHLAADAGHLEIVEVLLKYGADVNASDRDGHTPLHLAAREGHLEIVEVLLKNGADVNAQDKFGKTAFDISIDNGNEDLAEILQEFPKPSTPPGSSGGAMVFTLEDFVGDWRQTAGYNLDQVLEQGGVSSLFQNLGVSVTPIQRIVLSGENGLKIDIHVIIPYEGLSGDQMGQIEKIFKVVYPVDDHHFKVILHYGTLVIDGVTPNMIDYFGRPYEGIAVFDGKKITVTGTLWNGNKIIDERLINPDGSLLFRVTINGVTGWRLCERILAGGGGSGSEKSFVITDPRLPDNPIIFASDGFLELTEYSREEILGRNGRFLQGPETDQATVQKIRDAIRDQREITVQLINYTKSGKKFLNLLNLQPIRDQKGELQAFIGVQVDGKLAAALE", "values": [{"measurement": "fold shift in the median fluorescence of conjugate-treated cells compared to the control", "result": "~100", "unit": "fold"}]}]}
